Data reported in patent publication US12187807B2, “Antibody molecules to C5AR1 and uses thereof” (Visterra, Inc., priority 2020, dated 2025).
“Also recorded” adds a separate entry of the source. Read-outs that look alike come from different tables or passages of the source. One block for each molecule: values may come before it.

Tests used:
[1] = target: T1, C5aR1 (C5aR1-U937 cells) (Homo sapiens, UniProt P21730, K279N); assay: C5a induced calcium flux (Fluo-4), C5aR1-U937 cells; type: cell-based
T1 construct: expressed in transfected cells
T1 sequence (P21730 with tags, fused parts or gaps K279N limits assumed): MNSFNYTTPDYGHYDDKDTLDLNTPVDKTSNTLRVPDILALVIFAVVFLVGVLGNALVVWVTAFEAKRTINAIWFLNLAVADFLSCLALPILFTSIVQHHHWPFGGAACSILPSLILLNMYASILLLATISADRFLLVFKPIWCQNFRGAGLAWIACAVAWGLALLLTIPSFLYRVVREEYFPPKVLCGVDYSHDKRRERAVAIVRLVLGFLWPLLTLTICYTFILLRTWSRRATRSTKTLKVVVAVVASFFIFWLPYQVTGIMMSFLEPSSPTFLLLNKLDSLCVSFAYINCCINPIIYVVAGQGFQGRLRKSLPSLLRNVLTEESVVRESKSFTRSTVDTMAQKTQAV
Excerpt: Intracellular calcium is released into the cytoplasm by stimulation of GPCRs and acts as a second messenger of GPCR signaling, commonly used to quantify GPCR agonism and antagonism. As such, calcium flux assays using calcium sensitive dye were utilized to detect cytosolic changes in calcium concentration. […] The dye penetrated the cell membrane and became active once inside the cell. The active form of the dye became fluorescent after binding to intracellular calcium and the fluorescence was used to determine C5aR1 signaling in response to C5a addition. Specifically, stable C5aR1-U937 cells or neutrophils isolated from whole blood were stained with Fluo-4 Direct Calcium Assay kit from Thermo Fisher for 1 hour at 37° C. Next, antibody or antagonist was incubated with the cells for 30 minutes. The basal fluorescence with an excitation at 494 nm and emission at 516 nm was measured for 15 seconds. C5a was added to the cells and the fluorescence was measured over a span of four minutes. The basal read from before C5a stimulation and the max signal after C5a stimulation were used to calculate the response ratio. The potency of the antibodies was assessed for their ability to inhibit intracellular calcium release in C5aR1 expressing cells in the presence of C5a. Similar to the chemotaxis assay, the calcium flux assays were performed using engineered cells stably expressing C5aR1 as well as using human neutrophils.

[2] = target: T2, biotinylated peptide representing the N-terminus of C5aR1 with tyrosine sulfation (Homo sapiens, UniProt P21730); assay: Epitope mapping by biolayer interferometry, N-terminus with tyrosine sulfation; type: binding; set-up: key: “+” indicates binding to the listed peptide; “−” indicates lack of binding to the listed peptide; conditions: 10 μg/mL of antibody, biotinylated peptide on streptavidin biosensor
T2 construct: the N-terminus with tyrosine sulfation
T2 sequence (P21730 1-37): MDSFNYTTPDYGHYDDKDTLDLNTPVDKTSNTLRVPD
Method: The epitope mapping was undertaken, using biolayer interferometry, on a series of exemplary anti-C5aR1 antibodies generated as described in Example 1. Briefly, for each antibody, biotinylated peptides representing ECL2, the N-terminus with tyrosine sulfation, and the N-terminus without tyrosine sulfation, were immobilized in a streptavidin biosensor. Subsequently, the biosensor was exposed to 10 μg/mL of antibody to detect antibody binding to the immobilized peptide. The results of the epitope mapping study are shown in Table 4 (“+” indicates binding to the listed peptide; “−” indicates lack of binding to the listed peptide).

[3] = target: T1, C5aR1 (C5aR1-U937 cells); assay: C5a induced chemotaxis (transwell), C5aR1-U937 cells; type: cell-based; conditions: for inhibition of cell chemotaxis: C5aR1-U937 cells, 1, 10, or 100 nM antibody, C5a 10^−6 to 10^−9.5 M; for inhibition of chemotaxis as single agents: FIGS. 18A-18C, cells not given
Excerpt: (§1) One of the primary mechanisms by which neutrophils migrate to the site of inflammation is by chemotaxis induced by a C5a/C5adesArg gradient is detected by C5aR1 signaling. Anti-C5aR1 antibodies were thus assessed in a chemotaxis assay for their ability to block C5a induced migration of neutrophils. The assay involved cell migration in a double chamber well separated by filters. The cells and inhibitors were applied into the upper chamber and the lower chamber was filled with the chemoattractant, causing the cells to migrate to the lower chamber. The inhibition activity was evaluated by counting the migrated cell numbers. Specifically, a titration of C5a was added to the bottom chamber a 96 transwell plate. Cells expressing human C5aR1 (C5aR1-U937 cells or human neutrophils) were incubated with or without antagonist and then seeded into the top chamber of the transwell plate. The cells were incubated for 2 hours. Cells that migrated to the bottom chamber were quantified using the CyQUANT cell proliferation kit following the manufacturer's protocol. The assay was performed using engineered cells stably expressing C5aR1 as well as using human neutrophils.
as §1, with “Anti-C5aR1” for “One of the primary mechanisms by which neutrophils migrate to the site of inflammation is by chemotaxis induced by a C5a/C5adesArg gradient is detected by C5aR1 signaling. Anti-C5aR1”, “were” for “were thus”
In a first experiment, C5aR1-U937 cells were seeded into the top chamber of a 96 Transwell plate in the presence of no antibody (antagonist), or of 1, 10, or 100 nM antibody (antagonist).

- Binding to Sulfated N-terminal peptide [2]: +
B1: clone 66: anti-C5aR1 Site I antibody; VH SEQ ID NO: 483, VL SEQ ID NO: 543 (antibody, V domains shown)
VH: QVQLQQSDAELVKPGASVKISCKASGYTFIDHAIHWVKQRPEQGLEWIGYISPGNGEIKYNEKFKAKATLTADKSSSAAYMQLNSLTSADSAVYFCKRALFYYTGKYQPMDYWGQGTTVTDSS
VL: DIVMTQSQKFMSTTAGDRVSITCKASQNVGSAVVWYQQKPGRSPKLLIYSSSIRYTGVPDRFTGSGSGTDFTLTINSVQSEDLADYFCQQYNSFPLTFGAGTKLEIK
- inhibition of C5a induced intracellular calcium flux [1]: inhibited calcium flux as single agents in a dose-dependent manner

- inhibition of cell chemotaxis [3]: strongest effects
- Binding to Sulfated N-terminal peptide [2]: −
B2: clone 329: anti-C5aR1 Site II antibody; VH SEQ ID NO: 492, VL SEQ ID NO: 552 (antibody, V domains shown)
VH: QVQLQQSGAELTKPGASVKLSCKASGYTFTNYWMHWVKQRPGQGLEWIGYLNPSSGYTKYNQKFKDKATLTADKSSSTAYMQLNSLTYEDSAVYYCTRSGGDNYGNPYYFDRWGQGTTVTVSS
VL: DVVMTQTPLSLTVSLGDQASISCRSSQSLVHSNGNTYLHWYLQKPGQSPKFLIYKVSNRFSGVPDRFSGSGSGTDFRLKISRVEAEDLGVYFCSQSTLVPLTFGAGTKLEIK
- inhibition of chemotaxis as single agents [3]: inhibited chemotaxis as single agents in a dose-dependent manner
- inhibition of C5a induced intracellular calcium flux ([1]; listed as 329): inhibition of the C5a induced calcium efflux; also recorded: inhibited by antibody 329 in a dose-dependent manner; also recorded: inhibited calcium flux as single agents in a dose-dependent manner

- inhibition of cell chemotaxis [3]: strongest effects
- Binding to Sulfated N-terminal peptide [2]: +
B3: clone 583: anti-C5aR1 Site I antibody; VH SEQ ID NO: 536, VL SEQ ID NO: 595 (antibody, V domains shown)
VH: EVQLVESGGGLVKPGGSLKLSCAASGFTFNAYAMSWVRQTPEKRLEWVASISTGGNTYCPDSVKDRFTVSRDNVRNILYLQMSSLRSEDTAMYYCTRGYQRFSGFAYWGQGTLVTVS
VL: DVVMTQTPLSPPVSLGYQASISCRSSQSLVHSNGNTYLNWYLQKPGQSPKLLIYKVSNRLSGVPDRFSGSGSGTDFTLKISRVETEDLGVYFCSQSTHVPYTFGGGTKLEIK
- inhibition of chemotaxis as single agents [3]: inhibited chemotaxis as single agents in a dose-dependent manner
- inhibition of C5a induced intracellular calcium flux [1]: inhibition of the C5a induced calcium efflux
